From PMC7754472, “RPW8.1 enhances the ethylene‐signaling pathway to feedback‐attenuate its mediated cell death and disease resistance in Arabidopsis”

Assays:
GST-ORA59 [1] = biological target: T1, GST-ORA59 (Arabidopsis thaliana, UniProt Q9LND1 1-244); test: EMSA; Chemiluminescent EMSA kit (Beyotime) EMSA/Gel-Shift binding buffer; salt, pH and temperature not stated; details: protein: recombinant, tags: N-terminal GST (pGEX), blunt
GST-ORA59 [2] = biological target: T1, GST-ORA59; test: competition; 5-, 25-, 50-fold excess vs biotin-OBS2; Chemiluminescent EMSA kit (Beyotime) EMSA/Gel-Shift binding buffer; salt, pH and temperature not stated; details: protein: recombinant; tags: N-terminal GST (pGEX); blunt
GST-ORA59 [3] = biological target: T1, GST-ORA59; test: competition; 5-, 25-, 50-fold excess vs biotin-OBS1; Chemiluminescent EMSA kit (Beyotime) EMSA/Gel-Shift binding buffer; salt, pH and temperature not stated; details: protein: recombinant; tags: N-terminal GST (pGEX); blunt

T1 sequence (Q9LND1 whole entry): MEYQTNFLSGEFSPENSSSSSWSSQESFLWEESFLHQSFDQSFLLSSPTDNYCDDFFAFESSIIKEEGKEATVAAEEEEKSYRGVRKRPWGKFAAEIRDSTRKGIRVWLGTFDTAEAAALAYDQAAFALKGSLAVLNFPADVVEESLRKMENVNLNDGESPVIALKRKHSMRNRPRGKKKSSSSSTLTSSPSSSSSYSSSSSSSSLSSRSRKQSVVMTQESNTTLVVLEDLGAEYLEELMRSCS

B1: OBS4 (dsDNA)
DNA 1: ACATAAAACTATTTAATATGGTTCCATCCTTCCATGTACATAGATTCCTCT
DNA 2: AGAGGAATCTATGTACATGGAAGGATGGAACCATATTAAATAGTTTTATGT
- binding result (GST-ORA59 [1]; label: 3' biotin): binds

B2: OBS2 (dsDNA)
DNA 1: TTGCATATAGATCCAACGATCTCCTCTTACCTAGAAAAAGAGAGAGTTGTTGACCCGTA
DNA 2: TACGGGTCAACAACTCTCTCTTTTTCTAGGTAAGAGGAGATCGTTGGATCTATATGCAA
- binding result (GST-ORA59 [1]; label: 3' biotin (probe)): binds

B3: mutant competitor IV (OBS2, unnamed motif and TCT-motif mutant) (dsDNA)
DNA 1: TTGCATATAGATCCAACGATCTCGACTTACCTAGAAAAAGAGAGAGTTGTTGACCCGTA
DNA 2: TACGGGTCAACAACTCTCTCTTTTTCTAGGTAAGTCGAGATCGTTGGATCTATATGCAA
- binding result (GST-ORA59 [2]): binds

B4: mutant competitor I (OBS2, T/A-rich motif mutant) (dsDNA)
DNA 1: TTGCAGACAGATCCAACGATCTCCTCTTACCTCGAAAAAGAGAGAGTTGTTGACCCGTA
DNA 2: TACGGGTCAACAACTCTCTCTTTTTCGAGGTAAGAGGAGATCGTTGGATCTGTCTGCAA
- binding result (GST-ORA59 [2]): no binding

B5: mutant competitor II (OBS2, GAG-motif mutant) (dsDNA)
DNA 1: TTGCATATAGATCCAACGATCTCCTCTTACCTAGAAAAAGACACAGTTGTTGACCCGTA
DNA 2: TACGGGTCAACAACTGTGTCTTTTTCTAGGTAAGAGGAGATCGTTGGATCTATATGCAA
- binding result (GST-ORA59 [2]): binds

B6: mutant competitor III (OBS2, BOX-W1 mutant) (dsDNA)
DNA 1: TTGCATATAGATCCAACGATCTCCTCTTACCTAGAAAAAGAGAGAGTTGTACACCCGTA
DNA 2: TACGGGTGTACAACTCTCTCTTTTTCTAGGTAAGAGGAGATCGTTGGATCTATATGCAA
- binding result (GST-ORA59 [2]): binds

B7: OBS1 (dsDNA)
DNA 1: ACGTAATTCAATAATATTCTACGTAATTTAATACTCACGACAACTTGCATAT
DNA 2: ATATGCAAGTTGTCGTGAGTATTAAATTACGTAGAATATTATTGAATTACGT
- binding result (GST-ORA59 [1]; label: 3' biotin (probe)): binds

B8: mutant competitor V (OBS1, T/A-rich motif mutant) (dsDNA)
DNA 1: ACGTAATTCAAGAAGATTCTACGTAATTCAAGACTCACGACAACTTGCATAT
DNA 2: ATATGCAAGTTGTCGTGAGTCTTGAATTACGTAGAATCTTCTTGAATTACGT
- binding result (GST-ORA59 [3]): no binding

B9: OBS3 (dsDNA)
DNA 1: TATGAGTCAATCTCTTGAATTGTCTTCATATAATTAAAACCACTCGTTAACTTGTTAA
DNA 2: TTAACAAGTTAACGAGTGGTTTTAATTATATGAAGACAATTCAAGAGATTGACTCATA
- binding result (GST-ORA59 [1]; label: 3' biotin): binds

B10: OBS5 (dsDNA)
DNA 1: ATGTACATAGATTCCTCTATATTCACCTCGAGAGCTAAACAACTACTTTCAAAAA
DNA 2: TTTTTGAAAGTAGTTGTTTAGCTCTCGAGGTGAATATAGAGGAATCTATGTACAT
- binding result (GST-ORA59 [1]; label: 3' biotin): binds
